According to publication PMC8216282, “Structural basis for the dynamics of human methionyl-tRNA synthetase in multi-tRNA synthetase complexes” (Nucleic Acids Research, 2021):

T1: human cytosolic methionyl-tRNA synthetase, full length (MRS 1-900) (human, UniProt P56192 1-900)
T1 construct: methionyl-tRNA synthetase, cytosolic, human, residues 1-900 (900-residue protein); source: recombinant from pET30a or pQE80L plasmids, obtained as MRS-AIMP3 complex by co-purification
T1 sequence (looked up): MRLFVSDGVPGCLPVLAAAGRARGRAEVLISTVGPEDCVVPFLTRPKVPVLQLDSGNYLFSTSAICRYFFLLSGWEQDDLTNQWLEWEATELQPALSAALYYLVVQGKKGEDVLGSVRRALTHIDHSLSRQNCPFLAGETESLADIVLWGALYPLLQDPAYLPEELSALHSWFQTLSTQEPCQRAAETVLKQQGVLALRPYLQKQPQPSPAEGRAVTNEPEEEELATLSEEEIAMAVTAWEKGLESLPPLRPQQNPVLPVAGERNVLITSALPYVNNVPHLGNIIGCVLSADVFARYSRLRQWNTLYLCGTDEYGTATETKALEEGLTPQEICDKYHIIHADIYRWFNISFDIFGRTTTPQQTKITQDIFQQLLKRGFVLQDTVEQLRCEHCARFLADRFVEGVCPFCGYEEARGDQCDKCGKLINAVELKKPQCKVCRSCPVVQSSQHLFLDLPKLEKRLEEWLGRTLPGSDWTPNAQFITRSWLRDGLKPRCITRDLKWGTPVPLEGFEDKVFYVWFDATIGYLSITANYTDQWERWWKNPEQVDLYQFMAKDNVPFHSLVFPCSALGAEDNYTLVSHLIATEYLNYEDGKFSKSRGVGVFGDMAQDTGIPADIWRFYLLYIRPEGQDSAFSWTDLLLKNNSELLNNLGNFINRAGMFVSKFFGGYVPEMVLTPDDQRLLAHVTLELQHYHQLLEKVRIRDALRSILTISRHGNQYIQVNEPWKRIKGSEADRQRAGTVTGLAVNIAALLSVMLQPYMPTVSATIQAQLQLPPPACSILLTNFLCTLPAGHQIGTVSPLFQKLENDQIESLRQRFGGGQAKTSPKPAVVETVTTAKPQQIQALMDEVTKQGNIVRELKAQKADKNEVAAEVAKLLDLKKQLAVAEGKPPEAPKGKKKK

T2: human MRS without the C-terminal WHEP domain (MRS 1-834) (human, UniProt P56192 1-834)
T2 construct: methionyl-tRNA synthetase, cytosolic, human, residues 1-834; source: E. coli BL21 (DE3), purified (Ni-NTA, size-exclusion chromatography); as complex with AIMP3
T2 sequence (looked up): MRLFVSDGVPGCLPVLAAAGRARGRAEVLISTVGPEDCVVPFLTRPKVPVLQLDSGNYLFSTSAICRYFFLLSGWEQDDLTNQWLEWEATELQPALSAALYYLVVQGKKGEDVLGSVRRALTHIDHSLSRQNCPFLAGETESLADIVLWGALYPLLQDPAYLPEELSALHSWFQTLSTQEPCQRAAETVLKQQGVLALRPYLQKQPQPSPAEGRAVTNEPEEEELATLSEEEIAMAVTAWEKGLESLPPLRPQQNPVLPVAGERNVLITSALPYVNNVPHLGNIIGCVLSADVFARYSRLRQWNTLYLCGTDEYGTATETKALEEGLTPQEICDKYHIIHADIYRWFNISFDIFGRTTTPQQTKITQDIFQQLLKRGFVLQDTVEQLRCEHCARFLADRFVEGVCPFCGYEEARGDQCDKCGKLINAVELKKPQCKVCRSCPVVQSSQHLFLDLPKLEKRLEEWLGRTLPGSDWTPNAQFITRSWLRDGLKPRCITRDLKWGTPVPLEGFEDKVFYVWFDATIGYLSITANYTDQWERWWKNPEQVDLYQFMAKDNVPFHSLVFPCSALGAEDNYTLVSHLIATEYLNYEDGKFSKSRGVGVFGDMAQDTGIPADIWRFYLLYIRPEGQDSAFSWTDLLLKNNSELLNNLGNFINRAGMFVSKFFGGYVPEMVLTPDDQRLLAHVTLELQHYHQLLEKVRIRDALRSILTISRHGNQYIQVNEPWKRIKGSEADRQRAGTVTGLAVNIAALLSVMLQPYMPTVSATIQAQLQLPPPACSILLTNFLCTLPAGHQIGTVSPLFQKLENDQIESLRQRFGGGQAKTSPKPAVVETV

T3: extended GST domain of human MRS (MRS 1-224) (human, UniProt P56192 1-224)
T3 construct: methionyl-tRNA synthetase, cytosolic, human, residues 1-224 (GST domain and first part of the linker); also called MRSGST; source: recombinant, obtained as MRS_(1-224)-AIMP3 complex by co-purification
T3 sequence (looked up): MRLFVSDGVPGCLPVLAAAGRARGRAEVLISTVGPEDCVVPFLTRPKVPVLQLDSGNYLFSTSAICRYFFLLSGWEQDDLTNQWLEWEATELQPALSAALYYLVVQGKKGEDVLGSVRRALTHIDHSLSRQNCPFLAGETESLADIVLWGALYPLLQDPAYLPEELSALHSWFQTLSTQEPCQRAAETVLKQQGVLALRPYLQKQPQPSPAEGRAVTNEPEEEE

T4: MRS full-length (in MRS-AIMP3 complex);AIMP3 (in MRS-AIMP3 complex) (human;human?, UniProt P56192;O43324 1-900;1-174, |)
T4 sequence 1: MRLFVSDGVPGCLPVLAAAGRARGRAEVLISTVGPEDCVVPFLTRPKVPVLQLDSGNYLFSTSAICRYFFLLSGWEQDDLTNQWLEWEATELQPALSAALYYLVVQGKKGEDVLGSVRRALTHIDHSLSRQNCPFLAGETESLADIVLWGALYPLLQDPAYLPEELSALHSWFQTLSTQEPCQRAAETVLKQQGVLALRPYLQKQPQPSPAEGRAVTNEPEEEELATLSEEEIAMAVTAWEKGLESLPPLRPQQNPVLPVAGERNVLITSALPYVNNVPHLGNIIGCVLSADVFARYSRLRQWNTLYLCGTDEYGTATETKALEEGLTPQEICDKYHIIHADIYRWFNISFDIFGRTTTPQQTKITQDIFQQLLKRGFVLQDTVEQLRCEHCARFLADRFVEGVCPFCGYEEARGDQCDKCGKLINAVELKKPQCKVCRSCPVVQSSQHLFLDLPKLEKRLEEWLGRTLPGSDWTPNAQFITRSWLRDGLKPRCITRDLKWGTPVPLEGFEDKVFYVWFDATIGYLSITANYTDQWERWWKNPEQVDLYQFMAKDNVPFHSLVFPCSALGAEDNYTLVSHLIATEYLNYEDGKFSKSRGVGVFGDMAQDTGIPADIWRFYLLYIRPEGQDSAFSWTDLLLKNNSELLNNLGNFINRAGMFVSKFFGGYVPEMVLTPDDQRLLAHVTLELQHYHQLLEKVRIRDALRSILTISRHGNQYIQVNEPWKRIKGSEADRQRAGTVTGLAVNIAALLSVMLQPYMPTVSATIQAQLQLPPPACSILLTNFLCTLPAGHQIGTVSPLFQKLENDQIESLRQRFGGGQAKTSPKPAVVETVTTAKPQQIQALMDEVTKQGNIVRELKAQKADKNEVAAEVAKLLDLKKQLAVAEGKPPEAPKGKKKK
T4 sequence 2: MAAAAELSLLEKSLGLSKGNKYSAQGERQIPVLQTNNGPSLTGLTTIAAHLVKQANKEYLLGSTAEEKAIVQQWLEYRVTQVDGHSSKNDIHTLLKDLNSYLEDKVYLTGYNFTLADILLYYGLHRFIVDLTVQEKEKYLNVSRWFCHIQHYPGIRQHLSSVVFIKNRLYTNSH

T5: MRS221-900 (methionyl-tRNA synthetase without N-terminal GST domain) (human, UniProt P56192 221-900)
T5 sequence: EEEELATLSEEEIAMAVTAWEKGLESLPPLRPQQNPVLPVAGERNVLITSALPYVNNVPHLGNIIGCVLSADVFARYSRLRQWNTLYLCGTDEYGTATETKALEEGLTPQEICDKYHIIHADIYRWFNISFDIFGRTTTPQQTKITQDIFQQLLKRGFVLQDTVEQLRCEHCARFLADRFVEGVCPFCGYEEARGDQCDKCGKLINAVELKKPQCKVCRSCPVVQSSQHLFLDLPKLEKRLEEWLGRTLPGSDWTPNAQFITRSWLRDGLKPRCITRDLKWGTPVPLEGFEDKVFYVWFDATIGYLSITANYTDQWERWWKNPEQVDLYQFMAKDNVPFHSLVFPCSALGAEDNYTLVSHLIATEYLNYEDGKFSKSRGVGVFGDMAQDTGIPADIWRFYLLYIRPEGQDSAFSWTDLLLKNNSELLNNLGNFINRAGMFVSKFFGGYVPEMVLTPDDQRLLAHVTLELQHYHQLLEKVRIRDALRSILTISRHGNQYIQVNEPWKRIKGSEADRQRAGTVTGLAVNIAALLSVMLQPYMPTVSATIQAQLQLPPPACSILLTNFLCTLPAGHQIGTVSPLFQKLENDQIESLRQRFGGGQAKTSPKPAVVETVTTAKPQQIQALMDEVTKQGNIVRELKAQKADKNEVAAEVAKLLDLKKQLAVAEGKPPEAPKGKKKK


Key:
[1] = biological target: T1, human cytosolic methionyl-tRNA …; assay: SEC; Superdex 200 10/300 column, Tris-HCl pH 7.5, 150 mM NaCl; molecular weights from a calibration curve of standards; conditions: both partners purified
[2] = biological target: T2, human MRS without the C-terminal WHEP …; assay: as above; conditions: both partners purified
[3] = biological target: T3, extended GST domain of human MRS (MRS …); assay: crystal structure; MRS_(1-224)-AIMP3 complex crystallised in 20% PEG 8000, 0.1 M HEPES pH 7.5; molecular replacement; 2.0 A; conditions: both partners purified
[4] = biological target: T4, MRS full-length (in MRS-AIMP3 …); assay: MST; labeled RNA (80 nM); MST: PBS, 1-100 uM protein, 80 nM 6-FAM-RNA, temperature not stated; pull-down: 50 mM Tris-HCl pH 7.5, 150 mM NaCl, Ni-NTA (yeast total tRNA pool not listed); conditions: protein: recombinant;recombinant; copies: 1;1; tRNA fold
[5] = biological target: T5, MRS221-900 (methionyl-tRNA synthetase …); assay: as above; conditions: protein: recombinant; tags: hexa-His; tRNA fold
[6] = biological target: T5, MRS221-900 (methionyl-tRNA synthetase …); assay: pull-down (Ni-NTA, fluorescence); almost 2-fold; MST: PBS, 1-100 uM protein, 80 nM 6-FAM-RNA, temperature not stated; pull-down: 50 mM Tris-HCl pH 7.5, 150 mM NaCl, Ni-NTA (yeast total tRNA pool not listed); conditions: protein: recombinant, tags: hexa-His

binding result [1]	binding result [2]	binding result [3]	Binder	Kd [4]	Kd [5]	binding signal [6]
binds	binds	binds	AIMP3 (AARS-interacting multifunctional protein 3) (natural protein, human, AIMP3, human; 'Genes for full-length human MRS (residues 1-900) and AIMP3' were cloned; the earlier structure (PDB 4bvx) used AIMP3 1-169; source: recombinant from pET30a or pQE80L plasmids, co-purified with MRS or MRS_(1-224)) MAAAAELSLLEKSLGLSKGNKYSAQGERQIPVLQTNNGPSLTGLTTIAAHLVKQANKEYLLGSTAEEKAIVQQWLEYRVTQVDGHSSKNDIHTLLKDLNSYLEDKVYLTGYNFTLADILLYYGLHRFIVDLTVQEKEKYLNVSRWFCHIQHYPGIRQHLSSVVFIKNRLYTNSH			
			6-FAM synthetic elongator tRNAMet (structured_RNA, none stated (synthetic RNA)) RNA: GCCUCGUUAGCGCAGUAGGUAGCGCGUCAGUCUCAUAAUCUGAAGGUCGUGAGUUCGAUCCUCACACGGGGCA	31.6 µM	12.8 µM	~2 fold vs MRS-AIMP3 complex
